Experimental data as given in US20150258192A1, “COMPOSITIONS AND METHODS FOR PREVENTING OR TREATING CHRONIC LUNG ALLOGRAFT DYSFUNCTION (CLAD) AND IDIOPATHIC PULMONARY FIBROSIS (IPF)” (priority 2014, published 2015).
No end group written: not given here.

What was measured:
Experiment in all cases: Kinase Profiling Assay
Type in all cases: biochemical
Settings in all cases: peptide 100 μM
[1] = biological target: T1, MEK1(h) (Homo sapiens, UniProt Q02750)
T1 construct: purchased Millipore
Method: (§1) Every kinase activity measurement was conducted in duplicate.
(§2) Specifically, in these assays, a positively charged substrate is phosphorylated with a radiolabeled phosphate group from an ATP if the kinase is not inhibited by an inhibitor peptide. The positively charged substrate then is attracted to a negatively charged filter membrane, quantified with a scintillation counter, and compared to a 100% activity control.
(§3) In addition to determining the IC50 of the compound, the specificity of MK2 inhibitory peptides was assessed by examining activities of all 266 human kinases available for testing in the Millipore kinase profiling service (Table 1).

[2] = biological target: T2, SIK(h) (Homo sapiens, UniProt P57059)
T2 construct: purchased Millipore
T2 sequence (P57059 whole entry): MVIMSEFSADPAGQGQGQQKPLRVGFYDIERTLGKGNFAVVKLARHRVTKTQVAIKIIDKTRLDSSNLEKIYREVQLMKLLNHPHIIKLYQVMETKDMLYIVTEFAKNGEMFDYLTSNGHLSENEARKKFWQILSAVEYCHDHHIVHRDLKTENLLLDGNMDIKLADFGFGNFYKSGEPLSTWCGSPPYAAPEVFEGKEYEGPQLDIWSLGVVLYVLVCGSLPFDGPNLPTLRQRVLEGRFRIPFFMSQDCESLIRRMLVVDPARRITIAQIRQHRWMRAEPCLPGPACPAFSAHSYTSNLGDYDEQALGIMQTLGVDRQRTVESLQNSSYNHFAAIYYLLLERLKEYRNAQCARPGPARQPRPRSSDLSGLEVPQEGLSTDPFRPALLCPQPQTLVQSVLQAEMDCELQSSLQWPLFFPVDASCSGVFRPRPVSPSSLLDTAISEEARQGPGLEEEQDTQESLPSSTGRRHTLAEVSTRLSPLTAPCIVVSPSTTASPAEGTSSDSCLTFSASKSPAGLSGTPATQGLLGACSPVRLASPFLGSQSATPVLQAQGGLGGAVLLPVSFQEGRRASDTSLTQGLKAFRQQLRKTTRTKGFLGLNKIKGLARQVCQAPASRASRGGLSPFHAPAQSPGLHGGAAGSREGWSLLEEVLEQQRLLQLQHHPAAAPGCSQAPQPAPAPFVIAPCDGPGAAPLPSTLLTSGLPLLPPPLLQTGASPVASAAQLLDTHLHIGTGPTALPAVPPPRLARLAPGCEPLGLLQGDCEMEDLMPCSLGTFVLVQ
Method: as §1, §2, §3

[3] = biological target: CDK7/cyclinH/MAT1(h) (Homo sapiens, UniProt P50613)
Sequence of CDK7/cyclinH/MAT1(h) (P50613 whole entry): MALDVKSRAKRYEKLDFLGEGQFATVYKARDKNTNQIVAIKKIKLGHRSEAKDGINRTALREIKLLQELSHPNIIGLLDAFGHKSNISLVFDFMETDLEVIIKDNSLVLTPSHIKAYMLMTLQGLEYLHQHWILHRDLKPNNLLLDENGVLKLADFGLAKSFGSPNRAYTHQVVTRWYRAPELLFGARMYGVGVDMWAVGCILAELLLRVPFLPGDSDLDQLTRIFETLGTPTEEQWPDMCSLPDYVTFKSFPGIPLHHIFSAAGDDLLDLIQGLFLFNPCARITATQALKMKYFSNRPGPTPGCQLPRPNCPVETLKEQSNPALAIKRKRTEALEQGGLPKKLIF
Sequence of CDK7/cyclinH/MAT1(h) (P51946 whole entry partner): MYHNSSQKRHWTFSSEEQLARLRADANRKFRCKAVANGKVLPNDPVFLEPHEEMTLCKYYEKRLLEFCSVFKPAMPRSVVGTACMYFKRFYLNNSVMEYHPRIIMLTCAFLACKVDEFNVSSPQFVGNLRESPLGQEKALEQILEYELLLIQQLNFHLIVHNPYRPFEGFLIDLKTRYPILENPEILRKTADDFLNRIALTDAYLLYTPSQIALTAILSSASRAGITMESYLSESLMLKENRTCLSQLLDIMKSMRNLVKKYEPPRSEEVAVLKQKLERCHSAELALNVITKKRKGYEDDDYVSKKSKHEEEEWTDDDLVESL
Sequence of CDK7/cyclinH/MAT1(h) (P51948 whole entry partner): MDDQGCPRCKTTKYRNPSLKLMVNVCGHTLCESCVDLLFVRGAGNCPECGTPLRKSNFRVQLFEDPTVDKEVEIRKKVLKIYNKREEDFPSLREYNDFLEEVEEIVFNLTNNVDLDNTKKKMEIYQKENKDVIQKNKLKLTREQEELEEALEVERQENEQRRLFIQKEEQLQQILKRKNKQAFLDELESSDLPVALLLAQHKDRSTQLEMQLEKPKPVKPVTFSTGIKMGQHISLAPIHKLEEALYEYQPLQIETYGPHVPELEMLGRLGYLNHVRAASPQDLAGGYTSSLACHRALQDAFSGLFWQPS
Method: as §1, §2, §3

[4] = biological target: T3, MST2(h) (Homo sapiens, UniProt Q13188)
T3 construct: purchased Millipore
T3 sequence (Q13188 1-491): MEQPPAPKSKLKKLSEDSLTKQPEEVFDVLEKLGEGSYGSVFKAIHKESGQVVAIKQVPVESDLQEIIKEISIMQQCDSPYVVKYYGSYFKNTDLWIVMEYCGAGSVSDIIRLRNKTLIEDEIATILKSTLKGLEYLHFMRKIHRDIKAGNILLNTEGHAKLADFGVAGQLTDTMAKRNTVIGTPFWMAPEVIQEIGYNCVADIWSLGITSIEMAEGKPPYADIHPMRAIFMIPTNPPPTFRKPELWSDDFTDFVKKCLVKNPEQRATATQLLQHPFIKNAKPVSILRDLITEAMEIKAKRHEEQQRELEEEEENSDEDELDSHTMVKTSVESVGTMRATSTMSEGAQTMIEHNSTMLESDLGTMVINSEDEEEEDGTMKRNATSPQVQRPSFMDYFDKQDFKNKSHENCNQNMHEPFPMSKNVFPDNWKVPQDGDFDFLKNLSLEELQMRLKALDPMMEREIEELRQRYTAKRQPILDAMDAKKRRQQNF
Method: as §1, §2, §3

[5] = biological target: AMPKα2(h) (Homo sapiens, UniProt P54646)
Sequence of AMPKα2(h) (P54646 whole entry): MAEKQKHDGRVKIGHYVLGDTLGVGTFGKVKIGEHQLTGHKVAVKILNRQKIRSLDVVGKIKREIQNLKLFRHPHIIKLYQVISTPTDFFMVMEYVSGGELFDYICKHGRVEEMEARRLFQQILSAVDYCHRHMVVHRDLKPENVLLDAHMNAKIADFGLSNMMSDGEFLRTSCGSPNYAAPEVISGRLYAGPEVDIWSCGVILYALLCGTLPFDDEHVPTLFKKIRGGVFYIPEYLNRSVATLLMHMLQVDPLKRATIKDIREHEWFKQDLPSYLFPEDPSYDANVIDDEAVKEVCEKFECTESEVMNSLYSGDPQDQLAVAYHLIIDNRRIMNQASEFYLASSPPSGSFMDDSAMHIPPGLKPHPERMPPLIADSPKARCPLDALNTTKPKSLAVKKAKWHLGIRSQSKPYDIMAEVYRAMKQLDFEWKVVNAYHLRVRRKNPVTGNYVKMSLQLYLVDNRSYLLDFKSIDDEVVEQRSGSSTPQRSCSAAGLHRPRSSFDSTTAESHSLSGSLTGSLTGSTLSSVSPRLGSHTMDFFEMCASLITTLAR
Sequence of AMPKα2(h) (Q9Y478 whole entry partner): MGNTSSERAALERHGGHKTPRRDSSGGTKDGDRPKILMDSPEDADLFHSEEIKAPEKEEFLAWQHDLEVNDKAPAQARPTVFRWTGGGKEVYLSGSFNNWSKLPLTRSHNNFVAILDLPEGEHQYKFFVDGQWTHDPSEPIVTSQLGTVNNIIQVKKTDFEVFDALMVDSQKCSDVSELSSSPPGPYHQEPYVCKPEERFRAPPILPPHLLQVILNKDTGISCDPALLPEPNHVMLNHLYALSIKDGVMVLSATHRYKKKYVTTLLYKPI
Sequence of AMPKα2(h) (P54619 whole entry partner): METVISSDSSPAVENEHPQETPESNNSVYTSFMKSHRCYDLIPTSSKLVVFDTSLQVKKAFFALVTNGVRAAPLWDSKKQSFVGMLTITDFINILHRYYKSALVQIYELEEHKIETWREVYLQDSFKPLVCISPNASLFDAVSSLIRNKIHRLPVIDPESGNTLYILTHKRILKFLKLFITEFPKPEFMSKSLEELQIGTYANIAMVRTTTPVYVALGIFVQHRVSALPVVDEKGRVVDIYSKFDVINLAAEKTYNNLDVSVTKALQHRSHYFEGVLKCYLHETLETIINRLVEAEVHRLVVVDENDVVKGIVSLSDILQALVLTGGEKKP
Method: as §1, §2, §3

[6] = biological target: T4, TSSK1(h) (Homo sapiens, UniProt Q9BXA7)
T4 sequence (Q9BXA7 1-367): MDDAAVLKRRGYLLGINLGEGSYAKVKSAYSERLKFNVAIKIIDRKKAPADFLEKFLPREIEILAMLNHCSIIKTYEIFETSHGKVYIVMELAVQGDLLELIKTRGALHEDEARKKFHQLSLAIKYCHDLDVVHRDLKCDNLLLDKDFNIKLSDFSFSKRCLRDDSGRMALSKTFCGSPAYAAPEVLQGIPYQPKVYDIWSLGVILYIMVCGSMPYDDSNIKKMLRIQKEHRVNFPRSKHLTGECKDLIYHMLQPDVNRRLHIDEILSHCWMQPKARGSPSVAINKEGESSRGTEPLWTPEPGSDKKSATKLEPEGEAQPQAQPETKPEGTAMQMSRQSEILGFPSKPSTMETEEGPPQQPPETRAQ
Method: as §1, §2, §3

[7] = biological target: T5, GCK(h) (Homo sapiens, UniProt Q12851)
T5 construct: purchased Millipore
T5 sequence (Q12851 1-820): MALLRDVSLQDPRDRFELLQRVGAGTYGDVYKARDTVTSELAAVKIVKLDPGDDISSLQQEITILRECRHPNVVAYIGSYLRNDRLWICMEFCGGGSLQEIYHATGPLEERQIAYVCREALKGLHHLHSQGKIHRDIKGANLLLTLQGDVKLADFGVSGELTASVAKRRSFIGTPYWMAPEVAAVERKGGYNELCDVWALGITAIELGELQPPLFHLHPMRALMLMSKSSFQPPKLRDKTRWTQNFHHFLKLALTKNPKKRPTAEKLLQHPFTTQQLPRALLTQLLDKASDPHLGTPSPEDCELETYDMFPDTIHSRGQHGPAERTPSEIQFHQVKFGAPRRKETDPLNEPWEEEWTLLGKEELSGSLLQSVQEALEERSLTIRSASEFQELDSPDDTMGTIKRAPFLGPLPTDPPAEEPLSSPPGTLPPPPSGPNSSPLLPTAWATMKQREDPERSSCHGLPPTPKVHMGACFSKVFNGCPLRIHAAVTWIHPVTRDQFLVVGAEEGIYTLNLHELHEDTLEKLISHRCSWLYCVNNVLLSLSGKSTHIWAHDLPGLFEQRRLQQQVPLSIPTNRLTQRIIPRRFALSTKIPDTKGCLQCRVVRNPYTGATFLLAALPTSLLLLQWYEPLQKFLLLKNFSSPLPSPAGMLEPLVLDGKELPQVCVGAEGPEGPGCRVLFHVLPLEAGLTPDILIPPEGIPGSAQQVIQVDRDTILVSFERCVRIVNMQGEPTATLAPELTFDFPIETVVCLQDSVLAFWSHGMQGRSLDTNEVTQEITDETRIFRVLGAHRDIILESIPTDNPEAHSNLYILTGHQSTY
Method: as §1, §2, §3

[8] = biological target: Fer(h) (Homo sapiens, UniProt P16591)
Sequence of Fer(h) (P16591 whole entry): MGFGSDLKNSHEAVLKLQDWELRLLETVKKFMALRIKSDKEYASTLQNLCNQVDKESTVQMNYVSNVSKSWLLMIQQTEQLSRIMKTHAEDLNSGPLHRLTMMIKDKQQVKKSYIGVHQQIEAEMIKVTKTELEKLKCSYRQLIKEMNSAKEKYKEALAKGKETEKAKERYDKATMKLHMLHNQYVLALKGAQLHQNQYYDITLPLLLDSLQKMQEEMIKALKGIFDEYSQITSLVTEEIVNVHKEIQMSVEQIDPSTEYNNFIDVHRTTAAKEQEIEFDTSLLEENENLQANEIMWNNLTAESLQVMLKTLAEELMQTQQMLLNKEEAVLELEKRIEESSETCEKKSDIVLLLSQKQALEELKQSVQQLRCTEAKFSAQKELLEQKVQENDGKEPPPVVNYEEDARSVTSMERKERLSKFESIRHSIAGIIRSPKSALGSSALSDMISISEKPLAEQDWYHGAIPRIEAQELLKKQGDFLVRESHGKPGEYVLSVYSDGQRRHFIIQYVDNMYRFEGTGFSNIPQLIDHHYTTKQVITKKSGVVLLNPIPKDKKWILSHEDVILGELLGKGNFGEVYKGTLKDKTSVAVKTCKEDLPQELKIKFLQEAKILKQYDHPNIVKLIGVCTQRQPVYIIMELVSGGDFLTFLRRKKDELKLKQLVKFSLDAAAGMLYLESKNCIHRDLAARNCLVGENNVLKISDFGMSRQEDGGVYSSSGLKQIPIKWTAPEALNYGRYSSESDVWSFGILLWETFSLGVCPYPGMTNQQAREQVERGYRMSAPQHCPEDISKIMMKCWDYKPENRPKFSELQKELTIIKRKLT
Method: as §1, §2, §3

[9] = biological target: T6, p70S6K(h) (Homo sapiens, UniProt P23443)
T6 construct: purchased Millipore
T6 sequence (P23443 whole entry): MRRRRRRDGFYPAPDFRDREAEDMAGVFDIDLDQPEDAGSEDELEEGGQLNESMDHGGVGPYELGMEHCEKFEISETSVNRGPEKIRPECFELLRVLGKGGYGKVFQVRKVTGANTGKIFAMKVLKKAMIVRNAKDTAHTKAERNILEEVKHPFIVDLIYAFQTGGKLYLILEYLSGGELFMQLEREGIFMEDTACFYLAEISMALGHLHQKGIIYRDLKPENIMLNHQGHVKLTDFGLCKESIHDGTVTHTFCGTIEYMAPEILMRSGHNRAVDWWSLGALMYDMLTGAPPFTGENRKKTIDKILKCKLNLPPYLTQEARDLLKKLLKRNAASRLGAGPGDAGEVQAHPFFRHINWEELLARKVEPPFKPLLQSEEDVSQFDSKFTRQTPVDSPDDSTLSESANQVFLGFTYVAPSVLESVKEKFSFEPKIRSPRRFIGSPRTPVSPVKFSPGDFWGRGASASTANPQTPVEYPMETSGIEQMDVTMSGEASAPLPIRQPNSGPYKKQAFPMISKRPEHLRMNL
Method: as §1, §2, §3

[10] = biological target: Plk3(h) (Homo sapiens, UniProt Q9H4B4)
Method: as §1, §2, §3

[11] = biological target: CaMKIIγ(h) (Homo sapiens, UniProt Q13555)
Sequence of CaMKIIγ(h) (Q13555 whole entry): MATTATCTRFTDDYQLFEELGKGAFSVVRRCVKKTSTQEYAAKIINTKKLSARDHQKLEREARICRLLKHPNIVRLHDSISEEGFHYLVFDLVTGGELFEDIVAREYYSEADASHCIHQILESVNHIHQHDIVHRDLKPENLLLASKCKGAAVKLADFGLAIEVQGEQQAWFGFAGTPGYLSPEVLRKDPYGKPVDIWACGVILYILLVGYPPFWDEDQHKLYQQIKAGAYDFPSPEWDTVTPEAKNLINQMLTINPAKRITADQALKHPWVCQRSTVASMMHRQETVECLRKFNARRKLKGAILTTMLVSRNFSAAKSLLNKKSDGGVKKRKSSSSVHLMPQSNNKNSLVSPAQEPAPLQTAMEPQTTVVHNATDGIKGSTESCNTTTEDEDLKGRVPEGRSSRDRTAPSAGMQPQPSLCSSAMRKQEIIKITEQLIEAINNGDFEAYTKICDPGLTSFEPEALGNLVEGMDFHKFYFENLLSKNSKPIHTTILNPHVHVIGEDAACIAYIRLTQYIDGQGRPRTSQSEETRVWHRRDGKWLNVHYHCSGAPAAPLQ
Method: as §1, §2, §3

| Sequence | % activity [1] [%] | % activity [2] [%] | % activity [3] [%] | % activity [4] [%] | % activity [5] [%] | % activity [6] [%] | % activity [7] [%] | % activity [8] [%] | % activity [9] [%] | % activity [10] [%] | % activity [11] [%] |
| --- | --- | --- | --- | --- | --- | --- | --- | --- | --- | --- | --- |
| FAKLAARLYRKALARQLGVAA [MMI-0300] | 77 | 66 | 65 | 19 | 54 | 79 | 70 | 130 | 35 | 127 | 5 |
| HRRIKAWLKKIKALARQLGVAA (Mammal) [MMI-0500] | 21 | 40 | 15 | 2 | 9 | 46 | 30 | 196 | 3 | 122 | 3 |
| KAFAKLAARLYRKALARQLGVAA [MMI-0400] | 77 | 68 | 47 | 11 | 58 | 79 | 66 | 108 | 33 | 129 | 3 |
| YARAAARQARAKALARQLGVAA [MMI-0100] | – | – | – | 98 | – | 99 | 98 | – | 89 | – | – |
| YARAAARQARAKALNRQLGVA (Mammal) [MMI-0200] | – | – | 67 | – | 88 | 98 | 99 | 101 | 84 | – | 94 |
